± gives the uncertainty stated by the source.
B1: Friend leukemia integration 1 transcription factor, residues 116 to 197; numbered along this chain, Q01543 (parent)
chain: NMTTNERRVIVPADPTLWTQEHVRQWLEWAIKEYSLMEIDTSFFQNMDGKELCKMNKEDFLRATTLYNTEVLLSHLSYLRES

Variants of: B1
Test: abundance fitness (aPCA) (normalised: wild type 0, dead -1); higher = more abundant; growth selection in yeast, the domain comes from the species named
Details: Homo sapiens
Work on NMTTNERRVYVPADPTLWTQEHVRQWLEWAIKEYSLMEIDTSFFQNMDGKELCKMNKEDFLRATTLYNTEVLLSHLSYLRES yielded an abundance fitness of -0.237 ± 0.19.
For NMTTNERRVVVPADPTLWTQEHVRQWLEWAIKEYSLMEIDTSFFQNMDGKELCKMNKEDFLRATTLYNTEVLLSHLSYLRES, the abundance fitness was 0.035 ± 0.075.
Variant NMTTNERRVWVPADPTLWTQEHVRQWLEWAIKEYSLMEIDTSFFQNMDGKELCKMNKEDFLRATTLYNTEVLLSHLSYLRES has an abundance fitness of -0.197 ± 0.12.
NMTTNERRVQVPADPTLWTQEHVRQWLEWAIKEYSLMEIDTSFFQNMDGKELCKMNKEDFLRATTLYNTEVLLSHLSYLRES showed an abundance fitness of 0.03 ± 0.1.
In the case of NMTTNERRVRVPADPTLWTQEHVRQWLEWAIKEYSLMEIDTSFFQNMDGKELCKMNKEDFLRATTLYNTEVLLSHLSYLRES, the abundance fitness is reported as 0.098 ± 0.072.
With NMTTNERRVSVPADPTLWTQEHVRQWLEWAIKEYSLMEIDTSFFQNMDGKELCKMNKEDFLRATTLYNTEVLLSHLSYLRES the abundance fitness was 0.231 ± 0.12.
NMTTNERRVTVPADPTLWTQEHVRQWLEWAIKEYSLMEIDTSFFQNMDGKELCKMNKEDFLRATTLYNTEVLLSHLSYLRES showed an abundance fitness of 0.092 ± 0.089.
With NMTTNERRVIVCADPTLWTQEHVRQWLEWAIKEYSLMEIDTSFFQNMDGKELCKMNKEDFLRATTLYNTEVLLSHLSYLRES the abundance fitness was -0.178 ± 0.15.
With NMTTNERRVIVEADPTLWTQEHVRQWLEWAIKEYSLMEIDTSFFQNMDGKELCKMNKEDFLRATTLYNTEVLLSHLSYLRES the abundance fitness was 0.12 ± 0.15.
In the case of NMTTNERRVIVKADPTLWTQEHVRQWLEWAIKEYSLMEIDTSFFQNMDGKELCKMNKEDFLRATTLYNTEVLLSHLSYLRES, the abundance fitness is reported as -0.155 ± 0.12.
NMTTNERRVIVAADPTLWTQEHVRQWLEWAIKEYSLMEIDTSFFQNMDGKELCKMNKEDFLRATTLYNTEVLLSHLSYLRES showed an abundance fitness of -0.186 ± 0.093.
For NMTTNERRVIVDADPTLWTQEHVRQWLEWAIKEYSLMEIDTSFFQNMDGKELCKMNKEDFLRATTLYNTEVLLSHLSYLRES, the abundance fitness was 0.095 ± 0.15.
Variant NMTTNERRVIVGADPTLWTQEHVRQWLEWAIKEYSLMEIDTSFFQNMDGKELCKMNKEDFLRATTLYNTEVLLSHLSYLRES has an abundance fitness of -0.039 ± 0.088.
Work on NMTTNERRVIVFADPTLWTQEHVRQWLEWAIKEYSLMEIDTSFFQNMDGKELCKMNKEDFLRATTLYNTEVLLSHLSYLRES yielded an abundance fitness of -0.225 ± 0.16.
NMTTNERRVIVHADPTLWTQEHVRQWLEWAIKEYSLMEIDTSFFQNMDGKELCKMNKEDFLRATTLYNTEVLLSHLSYLRES gave an abundance fitness of -0.085 ± 0.11.
With NMTTNERRVIVIADPTLWTQEHVRQWLEWAIKEYSLMEIDTSFFQNMDGKELCKMNKEDFLRATTLYNTEVLLSHLSYLRES the abundance fitness was -0.193 ± 0.32.
With NMTTNERRVIAPADPTLWTQEHVRQWLEWAIKEYSLMEIDTSFFQNMDGKELCKMNKEDFLRATTLYNTEVLLSHLSYLRES the abundance fitness was 0.118 ± 0.07.
For NMTTNERRVIQPADPTLWTQEHVRQWLEWAIKEYSLMEIDTSFFQNMDGKELCKMNKEDFLRATTLYNTEVLLSHLSYLRES, the abundance fitness was -0.024 ± 0.093.
In the case of NMTTNERRVIWPADPTLWTQEHVRQWLEWAIKEYSLMEIDTSFFQNMDGKELCKMNKEDFLRATTLYNTEVLLSHLSYLRES, the abundance fitness is reported as 0.198 ± 0.064.
Work on NMTTNERRVIPPADPTLWTQEHVRQWLEWAIKEYSLMEIDTSFFQNMDGKELCKMNKEDFLRATTLYNTEVLLSHLSYLRES yielded an abundance fitness of 0.245 ± 0.11.
NMTTNERRVIEPADPTLWTQEHVRQWLEWAIKEYSLMEIDTSFFQNMDGKELCKMNKEDFLRATTLYNTEVLLSHLSYLRES showed an abundance fitness of 0.015 ± 0.067.
Work on NMTTNERRVICPADPTLWTQEHVRQWLEWAIKEYSLMEIDTSFFQNMDGKELCKMNKEDFLRATTLYNTEVLLSHLSYLRES yielded an abundance fitness of 0.217 ± 0.089.
With NMTTNERRVIIPADPTLWTQEHVRQWLEWAIKEYSLMEIDTSFFQNMDGKELCKMNKEDFLRATTLYNTEVLLSHLSYLRES the abundance fitness was -0.019 ± 0.086.
Work on NMTTNERRVINPADPTLWTQEHVRQWLEWAIKEYSLMEIDTSFFQNMDGKELCKMNKEDFLRATTLYNTEVLLSHLSYLRES yielded an abundance fitness of 0.094 ± 0.1.
For NMTTNERRVIGPADPTLWTQEHVRQWLEWAIKEYSLMEIDTSFFQNMDGKELCKMNKEDFLRATTLYNTEVLLSHLSYLRES, the abundance fitness was 0.061 ± 0.043.
Variant NMTTNERRVISPADPTLWTQEHVRQWLEWAIKEYSLMEIDTSFFQNMDGKELCKMNKEDFLRATTLYNTEVLLSHLSYLRES has an abundance fitness of 0.156 ± 0.055.
NMTTNERRVIYPADPTLWTQEHVRQWLEWAIKEYSLMEIDTSFFQNMDGKELCKMNKEDFLRATTLYNTEVLLSHLSYLRES showed an abundance fitness of 0.031 ± 0.1.
NMTTNERRVIDPADPTLWTQEHVRQWLEWAIKEYSLMEIDTSFFQNMDGKELCKMNKEDFLRATTLYNTEVLLSHLSYLRES showed an abundance fitness of -0.004 ± 0.077.
In the case of NMTTNERRVIHPADPTLWTQEHVRQWLEWAIKEYSLMEIDTSFFQNMDGKELCKMNKEDFLRATTLYNTEVLLSHLSYLRES, the abundance fitness is reported as -0.032 ± 0.14.
Variant NMTTNERRVIKPADPTLWTQEHVRQWLEWAIKEYSLMEIDTSFFQNMDGKELCKMNKEDFLRATTLYNTEVLLSHLSYLRES has an abundance fitness of 0.148 ± 0.1.
In the case of NMTTNERRVIRPADPTLWTQEHVRQWLEWAIKEYSLMEIDTSFFQNMDGKELCKMNKEDFLRATTLYNTEVLLSHLSYLRES, the abundance fitness is reported as 0.232 ± 0.044.
For NMTTNERRVIFPADPTLWTQEHVRQWLEWAIKEYSLMEIDTSFFQNMDGKELCKMNKEDFLRATTLYNTEVLLSHLSYLRES, the abundance fitness was 0.166 ± 0.086.
NMTTNERRVIMPADPTLWTQEHVRQWLEWAIKEYSLMEIDTSFFQNMDGKELCKMNKEDFLRATTLYNTEVLLSHLSYLRES gave an abundance fitness of 0.114 ± 0.088.
Variant NMTTNERRVITPADPTLWTQEHVRQWLEWAIKEYSLMEIDTSFFQNMDGKELCKMNKEDFLRATTLYNTEVLLSHLSYLRES has an abundance fitness of 0.077 ± 0.077.
